Measured values reported in the DeepSol protein solubility set.

Assay: soluble on expression in E. coli; label from the status in PepcDB or PDB records

Sequence	soluble on expression in E. coli
MGSDKIHHHHHHMAAPAGGGGSAVSVLAPNGRRHTVKVTPSTVLLQVLEDTCRRQDFNPSEYDLKFQRTVLDLSLQWRFANLPNNAKLEMVPVSRSREGPENIVRIAFQLDDGSRLQDAFCSRQTLWELLSHFAQTRERLQQLGEKTPVCVYMRNEVTGRAALQNTTLQSLGLTGGSATIRFVIKQCDTAGKQESIAVRSKAPGSPVSSLSADQASSSTLLPLNSGEFSRGDLNHEGDANTSGTGLEGGPKPTDAQTKQSTSEPASAPFVPFSGGGQRLGGPSASLRPLTSPSANSSKSFSGPGGPSKPKKPKPGEEPQQEPEPPVDRDPVVYHPDLEDLLQPWPAEVPDEFFEVTVDDVRRRLAQLKSERKRLEEAPLVTKAFREAQMKEKLERYPKVALRVLFPDRYILQGFFRPSETVGDLRDFVRSHLGNPELSFYLFIAPPKMVLDDHTLTLFQANLFPAALVHFGAEEPTGLYLEPGLLEHTVSPSTADVLVARCMSRASGSPPLLPAPDPVSLESEPIAEDGALGPPEPIQGTAQPVKRSLGKVPKWLKLPASKR	not soluble
MGSDKIHHHHHHMAATLEAVPSTKTADKKTEISEADAARELVRMAKEQGLSLTGPDGLLKQLTKTVIETALDEEMTEHLGYEKHDSAGKQTANSRNGVRPKTVLTETTGPVEVDVPRDRAGTFEPVIVKKRQRRLTGVDEMVLSLYAKGLTTGEISAHFAEIYGASVSKETVSRITDRVLEEMAAWQNRPLDEVYAAIFIDAIVVKVRDGQVANRPIYAAIGVTLEGEKDILGLWAGTGGEGAKFWMSVLTDIKNRGVKDTFFLVCDGLKGLPEVVTNVWPLATVQTCIIHLIRNTFRLASRQDWDALKRDVKPIYTAPNAEAARTALEELAERWGRKYGAIVRLWENAWEELIPFLDYDVEIRRVICSTNAIESLNARYRRAVKARGHLPTEQAALKCLYLVTRSLDPTGAGKTRWAVRWKPALNAFAITFSDRFPAAESY	not soluble
MGSDKIHHHHHHMADPQTLDKIIDKTLDTVGKSREQIFEISEQSRNEYVSLEQELQEVRMKVAEIIDQSDRAEVHARFARNRLAEVSKQFHRYSNEEIRKVYEQANELQVKLALLQQEEQQLRDRRDAIERRLLNLKDTIERAEELVGQMTVVYNFLTGDLRQVGEALEDAREKQAFGLQIIQAQEEERRKLSREIHDGPAQMMANVLLRSELVERIYHDKGIDEALKEIRDLRKMVKSSLAEVRRIIYDLRPMALDDLGLIPTLKKYVKTFEEHTGIFVDFKHIGKGERFPEHVEIALFRLVQEALQNTRKHAKASHVHVKIEEQKTKFTVVIKDNGKGFDQTEKKEGSFGLVGMKERVNMLKGQLVIRTKPNDGTTIIISIPITTEE	not soluble
MGSDKIHHHHHHMAEAGTLAVLVPEITIEELFTAQGADLSRRSPRQDMVDLNIKLLAEARELAKVSIIWQEVKVLGSQQQELYLEGGLTLRGSLLPKVLGPAESAVLFAMTIGEGIDERVKEYTHQGKTLEAFILDAAGSAILAKAAYHAISELAGLYKEKQLDTTFSLGPGHSYWKGLEDVRTIIDYLKGEQIGISLTDSNLMLPKKSIAMVMGVGSNLPDFKGKTHCDFCHLKGSCTMRELGVNNC	not soluble
MGSDKIHHHHHHMAKEKKSRDTQKKIFVLDTSVIIYDHNAVKNFEEHDLAIPITVLEELDNFKKGNDIKNFEAREFTRFLDELAADSASLQDWIQLEGRDKGKLKVIMNTHGTKETDAEKIFDDRKNDHKILNAAISVQAENPDKKVILVSKDINLRLKAKSLNIPSEDYNTGKVKDIDLLYTGHTTIENVAPEKINELYEKGYCDIDAIPEQDVSKNHYYILKSVKSSALAYYNPVDKRLEHVGKTPAYGIKPRNAEQAFAIHAVLDPHIKLVSIQGVAGTGKTLIALAATLEQRKDFKQIFLARPIVPLSNKDIGYLPGDIKSKLNPYMEPLFDNLKFIQNQFNETDQDYQRITDMVNKEKLVITPLAYIRGRSLSNIVFIVDEAQNLTPHEVKTIISRAGENCKIIFTGDIFQIDTPYLDSESNGLSYLIDRLKNQDLYAHITLEKGERSELANLANELL	not soluble
MGSDKIHHHHHHMAKNKTAYVCNECGQDFPRWQGQCSACQEWNTITEVRLGAASPGRSTKFVGYAGASSNEVKTLDQIDLNAMPRILSHFGELDRVLGGGIVPGSAILIGGHPGAGKSTLLLQTLCHLAEQMPALYVTGEESLQQVAMRAHRLGLPTNKLRMLSETSVEQICEVALKELPKVIVVDSIQVMHMSDVASSPGSVSQVRESASYLTRFAKENGIAVIMVGHVTKDGSLAGPKVLEHCIDCSVMFEGDSDSRYRTLRSHKNRFGAINELGVFAMTERGLKEVANPSAIFLSRGEEESSGSLVMVVWEGTRPLLVELQVLVDNSAMSNPRRVAVGMDANRLAMLLAVMHRHGGLQMSDQDVFVNVVGGVKVTETSADLTLLLAMVSSFRGDILPSDLVAFGEVGLSGEIRPVPNGQERLIEAAKHGFKRAIVPKANVPKKPPAGMEVVGVSKLSEALEAI	not soluble
MGSDKIHHHHHHMAKYEQLAQELKTRIAQGVWQAGDKLPSLRQTVADSGLSLMTVLNAYQLLESQGVISAQAKSGYLVAPKPELIARQGEAFRYPERQKPIYLSDSVDINEFVFNVLQASKQADIVPFGSGFPDPSLFPQQALARSLVKVTRHMSPSFAADNLPPGNAGLRKAISQRYAKLGMSISPDEIIITSGAMEALNLSLATLTQAGDWVVIESPTFYGAMQAIERLKLKAIAVATDPQQGIDLEALAEVLKTYPVKACWLMSQHQNPLGCSLSDTKKQALYQLLNEHKVSLIEDDVYQELYVDSSAPRSVKAFDTEGRVLHCGSFSKSLIAGYRVGWVAAGCHAPQLQRLQVMSTLSTSAPMQLAIADFIQSAQYERHLKQLRKKLASRKLAMYQLLCAHLPESVGVNFAQGGYFLWLALPAHMDATQIYYQAIERGISIAPGNLFSNQVEFRHFMRLNASYECSSEIVSAVMVLAELIRNYSRRS	not soluble
MGSDKIHHHHHHMALFEGYERRIDGINTVLKKYGMNSIEDAKKVCDEKGINVYDIVRSIQPICFENACWAYTLGAAIAIKNGCTSASDAAKNIGEGLQAFCIPGSVADDRKVGLGHGNLGAMLLSEDAKCFAFLAGHESFAAAEGAIGIAKSANKVRKEPLRVILNGLGKDAAQIISRINGFTYVQTQFDYYTGELKIVKETAYSKGERAEVRCFGADDVREGVAIMHHEGVDVSITGNSTNPTRFQHPVAGTYKKECFEMGKKYFSVASGGGTGRTLHPDNMAAGPASYGMTDTMGRMHSDAQFAGSSSVPAHVDMMGLIGMGNNPMVGATVAVAVAIEEAMK	not soluble
MGSDKIHHHHHHMALKEEIYYNSPIFIQNILTSMYGKKLMQERYGPGYEKKLQELRVKDRTVDYRIEQLERLNTFLLFIQEHTPYYRKLFQEHDIRLPFTSLDQLQTIPILEKETLRQQNEAFMSEVDAPVRGRTGGTSGKSLQVAFMREDVQERMAHLDYFKELHGFRSGMRRASFTGRTLTAINQKKPIFWRKNRPLNQLLLSIFHMKEENFPAYIEELNRFRPAALDGTPTAMLEIALYLLKHELRLDFPLVAIFPTSETVTPEMRRLLEEAFQAPVFDQYGSSEGAPIISECRERKLHLHHETGIIEPYGDGGEVVVTCFTTRGTPLVRYRIGDRMTLGQEACTCGLNGPVIESIDGRGTSYIVSEKRGKVFEGDITTIARELPNSVLRLQVEQHELNHVTLRYIPDEQRFVPKHEKILLREMQKLLGSSMKVTLEPVQQMKQEPNGKTLIVKQSMK	not soluble
MGSDKIHHHHHHMALLEVHNLNKRFTDHISLFHKQRFYAVKNISFNLNEGETIAIIGENGAGKSTLAKMIAGITKPTSGDMFFRYKKLTYGDYQFRTKHIRMMFQDPNHTFNPNHNIGQILDAPLRLATDMNEQERNECIFNTLKLVGMYPEYALIPIKETSTSQKQRIALARALILSPEIIIADDTLSTLDFSVKTQLTNLMLNLQEKLGIAFIYVGQHLGIIKHIADKLIIMHQGEAIEYGDTKEVLLNPQNPITARLIESHFGKMLTEDAWAK	not soluble
MGSDKIHHHHHHMALLFSGGTMSQVQSGILPEHCRAAIWIEANVKGEVDALRAASKTFADKLATFEAKFPDAHLGAVVAFGNNTWRALSGGVGAEELKDFPGYGKGLAPTTQFDVLIHILSLRHDVNFSVAQAAMEAFGDCIEVKEEIHGFRWVEERDLSGFVDGTENPAGEETRREVAVIKDGVDAGGSYVFVQRWEHNLKQLNRMSVHDQEMVIGRTKEANEEIDGDERPETSHLTRVDLKEDGKGLKIVRQSLPYGTASGTHGLYFCAYCARLHNIEQQLLSMFGDTDGKRDAMLRFTKPVTGGYYFAPSLDKLMAL	not soluble
